Measurements reported in US20040220384A1 (Takeda / Millennium, published 2004).
Non-standard residues stand in square brackets, D forms with d. No end group written: not given here. Trp(6-Br) = N[C@@H](Cc1c[nH]c2cc(Br)ccc12)C(=O)O; dTrp(6-Br) = N[C@H](Cc1c[nH]c2cc(Br)ccc12)C(=O)O

T1: rat GPR7 (rat TGR26) (rat, UniProt Q56UD9 1-329)
T1 sequence: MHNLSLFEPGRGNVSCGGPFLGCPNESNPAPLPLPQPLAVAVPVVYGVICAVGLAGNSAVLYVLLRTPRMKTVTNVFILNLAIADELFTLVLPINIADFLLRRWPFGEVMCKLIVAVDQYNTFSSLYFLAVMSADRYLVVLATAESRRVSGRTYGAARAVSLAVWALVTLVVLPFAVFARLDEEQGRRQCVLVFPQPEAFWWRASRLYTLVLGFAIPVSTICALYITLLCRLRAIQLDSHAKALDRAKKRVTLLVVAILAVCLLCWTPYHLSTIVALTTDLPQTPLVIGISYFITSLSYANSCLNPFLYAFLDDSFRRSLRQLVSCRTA

T2: bovine GPR7 (bovine, UniProt Q8MJV3 1-331)
T2 sequence: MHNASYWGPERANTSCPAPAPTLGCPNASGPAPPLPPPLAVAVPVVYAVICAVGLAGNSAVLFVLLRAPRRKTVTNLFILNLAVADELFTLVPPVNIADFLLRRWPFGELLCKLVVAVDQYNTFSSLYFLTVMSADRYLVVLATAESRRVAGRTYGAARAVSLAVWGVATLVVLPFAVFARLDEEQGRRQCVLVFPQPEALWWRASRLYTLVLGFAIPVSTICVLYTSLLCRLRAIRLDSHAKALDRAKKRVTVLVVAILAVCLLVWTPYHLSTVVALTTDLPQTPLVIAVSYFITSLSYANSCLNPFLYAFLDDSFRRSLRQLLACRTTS

T3: bovine GPR8 (bovine, UniProt Q8MJV2 1-336)
T3 sequence: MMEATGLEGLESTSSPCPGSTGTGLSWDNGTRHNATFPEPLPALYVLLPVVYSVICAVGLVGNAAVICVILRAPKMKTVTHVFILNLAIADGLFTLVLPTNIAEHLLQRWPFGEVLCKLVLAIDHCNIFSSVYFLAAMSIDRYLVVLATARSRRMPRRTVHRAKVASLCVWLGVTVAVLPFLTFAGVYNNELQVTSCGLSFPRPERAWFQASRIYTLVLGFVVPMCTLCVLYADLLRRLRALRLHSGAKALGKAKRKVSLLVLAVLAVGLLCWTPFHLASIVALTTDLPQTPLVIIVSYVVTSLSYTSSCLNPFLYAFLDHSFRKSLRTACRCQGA

T4: human GPR7 (human, UniProt P48145 1-328)
T4 sequence: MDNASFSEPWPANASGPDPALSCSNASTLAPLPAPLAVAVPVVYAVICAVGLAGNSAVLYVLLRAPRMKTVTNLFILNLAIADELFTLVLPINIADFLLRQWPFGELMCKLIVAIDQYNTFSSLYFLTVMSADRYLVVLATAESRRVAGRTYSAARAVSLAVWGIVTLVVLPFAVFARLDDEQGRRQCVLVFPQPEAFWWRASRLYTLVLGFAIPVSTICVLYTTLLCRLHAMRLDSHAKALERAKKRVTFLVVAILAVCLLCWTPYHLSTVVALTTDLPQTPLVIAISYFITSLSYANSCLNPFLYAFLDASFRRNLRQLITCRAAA

B1: Trp1-bovine GPR7L(29) (peptide)
peptide: WYKPTAGQGYYSVGRAAGLLSGFHRSPYA
notes: also called bovine GPR7 ligand B; non-brominated GPR7L

molecular target: T1, rat GPR7 (rat TGR26); test: cell-based or functional assay

Row | Binder | IC50 of intracellular cAMP production suppression (cAMP production inhibition rate) [nM]
1 | WYKPAAGSHHYSVGRAAGLLSSFHRFPST (also called rat GPR7 ligand B) [Trp1-rat GPR7L(29)] | 0.3
2 | [dTrp(6-Br)]YKPTAGQGYYSVGRAAGLLSGFHRSPYA [DTrp(6Br)1-bovine GPR7L(29)] | 2.5
3 | [dTrp(6-Br)]YKPAAGHSSYSVGRAAGLLSGLRRSPYA [DTrp(6Br)1-human GPR7L(29)] | 49
4 | B1 | 0.25
5 | [Trp(6-Br)]YKPAAGHSSYSVGRAAGLLSGLRRSPYA [LTrp(6Br)1-human GPR7L(29)] | 0.47
6 | [Trp(6-Br)]YKPTAGQGYYSVGRAAGLLSGFHRSPYA [LTrp(6Br)1-bovine GPR7L(29)] | 0.21
7 | WYKPAAGSHHYSVGRAAGLLSSFH (also called rat GPR7 ligand A) [Trp1-rat GPR7L(24)] | 0.18

molecular target: T2, bovine GPR7; test: cell-based or functional assay

Row | Binder | IC50 of intracellular cAMP production suppression (cAMP production inhibition rate) [nM]
8 | WYKPAAGSHHYSVGRAAGLLSSFHRFPST (also called rat GPR7 ligand B) [Trp1-rat GPR7L(29)] | 1.2
9 | [dTrp(6-Br)]YKPTAGQGYYSVGRAAGLLSGFHRSPYA [DTrp(6Br)1-bovine GPR7L(29)] | 77
10 | [dTrp(6-Br)]YKPAAGHSSYSVGRAAGLLSGLRRSPYA [DTrp(6Br)1-human GPR7L(29)] | 360
11 | B1 | 1.2
12 | [Trp(6-Br)]YKPAAGHSSYSVGRAAGLLSGLRRSPYA [LTrp(6Br)1-human GPR7L(29)] | 1.8
13 | [Trp(6-Br)]YKPTAGQGYYSVGRAAGLLSGFHRSPYA [LTrp(6Br)1-bovine GPR7L(29)] | 1.9
14 | WYKPAAGSHHYSVGRAAGLLSSFH (also called rat GPR7 ligand A) [Trp1-rat GPR7L(24)] | 0.51

molecular target: T3, bovine GPR8; test: cell-based or functional assay

Row | Binder | IC50 of intracellular cAMP production suppression (cAMP production inhibition rate) [nM]
15 | WYKPAAGSHHYSVGRAAGLLSSFHRFPST (also called rat GPR7 ligand B) [Trp1-rat GPR7L(29)] | 14
16 | [dTrp(6-Br)]YKPTAGQGYYSVGRAAGLLSGFHRSPYA [DTrp(6Br)1-bovine GPR7L(29)] | 34
17 | [dTrp(6-Br)]YKPAAGHSSYSVGRAAGLLSGLRRSPYA [DTrp(6Br)1-human GPR7L(29)] | 424
18 | B1 | 5.4
19 | [Trp(6-Br)]YKPAAGHSSYSVGRAAGLLSGLRRSPYA [LTrp(6Br)1-human GPR7L(29)] | 51
20 | [Trp(6-Br)]YKPTAGQGYYSVGRAAGLLSGFHRSPYA [LTrp(6Br)1-bovine GPR7L(29)] | 4
21 | WYKPAAGSHHYSVGRAAGLLSSFH (also called rat GPR7 ligand A) [Trp1-rat GPR7L(24)] | 3.5

molecular target: human GPR8 (human, UniProt P48146 1-333); test: cell-based or functional assay
Sequence (P48146 whole entry): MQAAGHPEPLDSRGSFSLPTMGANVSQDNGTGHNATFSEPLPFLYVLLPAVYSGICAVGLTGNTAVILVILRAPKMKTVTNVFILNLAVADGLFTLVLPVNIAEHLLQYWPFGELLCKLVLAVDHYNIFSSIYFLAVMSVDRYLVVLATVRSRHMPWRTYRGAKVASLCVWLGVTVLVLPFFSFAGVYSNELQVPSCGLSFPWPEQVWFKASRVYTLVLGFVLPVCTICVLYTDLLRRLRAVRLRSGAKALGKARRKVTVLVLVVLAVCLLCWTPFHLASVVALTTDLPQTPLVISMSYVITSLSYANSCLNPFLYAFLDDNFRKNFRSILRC

Row | Binder | IC50 of intracellular cAMP production suppression (cAMP production inhibition rate) [nM]
22 | WYKPAAGSHHYSVGRAAGLLSSFHRFPST (also called rat GPR7 ligand B) [Trp1-rat GPR7L(29)] | 8.8
23 | [dTrp(6-Br)]YKPTAGQGYYSVGRAAGLLSGFHRSPYA [DTrp(6Br)1-bovine GPR7L(29)] | 198
24 | [dTrp(6-Br)]YKPAAGHSSYSVGRAAGLLSGLRRSPYA [DTrp(6Br)1-human GPR7L(29)] | 770
25 | B1 | 8.1
26 | [Trp(6-Br)]YKPAAGHSSYSVGRAAGLLSGLRRSPYA [LTrp(6Br)1-human GPR7L(29)] | 32
27 | [Trp(6-Br)]YKPTAGQGYYSVGRAAGLLSGFHRSPYA [LTrp(6Br)1-bovine GPR7L(29)] | 9.7
28 | WYKPAAGSHHYSVGRAAGLLSSFH (also called rat GPR7 ligand A) [Trp1-rat GPR7L(24)] | 2.8

molecular target: T4, human GPR7; test: cell-based or functional assay

Row | Binder | IC50 of intracellular cAMP production suppression (cAMP production inhibition rate) [nM]
29 | WYKPAAGSHHYSVGRAAGLLSSFHRFPST (also called rat GPR7 ligand B) [Trp1-rat GPR7L(29)] | 0.86
30 | [dTrp(6-Br)]YKPTAGQGYYSVGRAAGLLSGFHRSPYA [DTrp(6Br)1-bovine GPR7L(29)] | 35
31 | [dTrp(6-Br)]YKPAAGHSSYSVGRAAGLLSGLRRSPYA [DTrp(6Br)1-human GPR7L(29)] | 106
32 | WYKPAAGHSSYSVGRAAGLLSGL [Trp1-human GPR7L(23)] | 0.58
33 | B1 | 0.43
34 | [Trp(6-Br)]YKPAAGHSSYSVGRAAGLLSGLRRSPYA [LTrp(6Br)1-human GPR7L(29)] | 0.44
35 | [Trp(6-Br)]YKPTAGQGYYSVGRAAGLLSGFHRSPYA [LTrp(6Br)1-bovine GPR7L(29)] | 0.58
36 | WYKPAAGSHHYSVGRAAGLLSSFH (also called rat GPR7 ligand A) [Trp1-rat GPR7L(24)] | 0.31

molecular target: T4, human GPR7; test: binding inhibition of iodine-labeled hGPR7L-23 on human GPR7-expressed CHO cell membrane fraction
Procedure: The peptides shown in TABLE 3 are those obtained by diluting the stock solution of […] or 10⁻³ M with the assay buffer in 10⁻⁵ M, 10⁻⁶ M, 10⁻⁷ M, 10⁻⁸ M, 10⁻⁹ M, 10⁻¹⁰ M and 10⁻¹¹ M. As NBS, hGPR7L-23 was prepared in a final concentration of 10⁻⁵ M. The sample solution and NSB prepared were dispensed on a polypropylene-made 96-well plate, the assay buffer was dispensed thereto to make the total volume 50 μl, and 25 μl of the iodine-labeled product dilution was added thereto. After agitation, 25 μl of the solution of human GPR7-expressed CHO cell membrane fraction were dispensed thereto and agitated, followed by incubation at room temperature for 1.5 hour. Using a cell harvester for the 96-well plate, the culture medium was adsorbed onto a filter unit, which had previously been wetted with an assay buffer (50 mM Tris-HCl, pH7.5). After washing 5 times with the assay buffer, the filter unit was thoroughly dried. After 50 μl of a liquid scintillator was dispensed thereto, the radioactivity was counted on a Top Count (Packard) and the data was analyzed in triplet (FIG. 33).

Row | Binder | IC50 [nM]
37 | WYKPAAGSHHYSVGRAAGLLSSFHRFPST (also called rat GPR7 ligand B) [Trp1-rat GPR7L(29)] | 0.34
38 | [dTrp(6-Br)]YKPTAGQGYYSVGRAAGLLSGFHRSPYA [DTrp(6Br)1-bovine GPR7L(29)] | 6.1
39 | [dTrp(6-Br)]YKPAAGHSSYSVGRAAGLLSGLRRSPYA [DTrp(6Br)1-human GPR7L(29)] | 13
40 | B1 | 0.31
41 | [Trp(6-Br)]YKPAAGHSSYSVGRAAGLLSGLRRSPYA [LTrp(6Br)1-human GPR7L(29)] | 0.32
42 | [Trp(6-Br)]YKPTAGQGYYSVGRAAGLLSGFHRSPYA [LTrp(6Br)1-bovine GPR7L(29)] | 0.34
43 | WYKPAAGSHHYSVGRAAGLLSSFH (also called rat GPR7 ligand A) [Trp1-rat GPR7L(24)] | 0.3
